Settings in all cases: modification not given
Experiment [1] addresses T1, human GIP receptor (GIPR) (human), P48546.
T1 chain: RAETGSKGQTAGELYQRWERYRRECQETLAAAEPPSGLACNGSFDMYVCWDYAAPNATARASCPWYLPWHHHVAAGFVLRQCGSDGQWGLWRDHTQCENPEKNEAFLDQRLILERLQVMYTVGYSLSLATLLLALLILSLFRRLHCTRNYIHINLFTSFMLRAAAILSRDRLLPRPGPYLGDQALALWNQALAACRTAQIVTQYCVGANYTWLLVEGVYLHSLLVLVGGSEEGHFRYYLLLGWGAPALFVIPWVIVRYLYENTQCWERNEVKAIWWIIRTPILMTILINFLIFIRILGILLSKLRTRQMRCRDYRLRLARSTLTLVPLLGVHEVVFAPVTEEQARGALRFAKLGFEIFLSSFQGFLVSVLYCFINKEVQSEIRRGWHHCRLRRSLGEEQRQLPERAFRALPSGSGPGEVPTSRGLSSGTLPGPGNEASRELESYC
As to the kind of experiment: other, Schild cAMP.

For experiment [2], the target named is T1, human GIP receptor (GIPR) (human), …. The experiment can be described thus: competition, 125I-hGIP.
Experiment [3] has the same target. As to the kind of experiment: competition, 125I-GIP(1-42).
The target is the same in experiment [4]. The experiment can be described thus: competition, 125I-GIP(2-30)NH2.
For experiment [5] the target is unchanged. As to the kind of experiment: competition, 125I-GIP(1-30)NH2.
Experiment [6] shares this target. As to the kind of experiment: competition, 125I-GIP(3-30)NH2.
Experiment [7] has the same target. The experiment can be described thus: competition.
The target is the same in experiment [8].
Experiment [9] has the same target. As to the kind of experiment: competition.
Experiment [10] has the same target. As to the kind of experiment: competition.
Experiment [11] has the same target.

Read-outs that look alike come from different tables or passages of the source. No end group written: not given here.

What is called Ki is a dissociation constant, usually derived from enzyme kinetics or from competition with a known ligand. Read a low Ki as tighter binding. For EGTFISDYSIAMEKIAQQDFVNWLLAQK [hGIP(3-30)D15E H18A], the Ki in experiment [1] was determined as 7.9 nM. This counts as single-digit nanomolar.

What is called IC50 is the point on the concentration scale where inhibition reaches its midpoint. In experiment [1], EGTFISDYSIAMDKIKQQDFVNWLLAQK [hGIP(3-30)H18K] showed a Ki of 37 nM. The IC50 in experiment [2] turned out to be 7.8 nM.

In turn, EGTFISDYSIAMDKIAQQDFVNWLLAQK [hGIP(3-30)H18A] returned a Ki in experiment [1] of 35 nM. In other words, the double-digit nanomolar range.

Regarding FISDYSIAMDKIHQQDFVNWLLAQK (not fully specified (C-terminus)) [GIP(6-30)NH2], the Ki in experiment [3] was found to be 347 nM. Besides, the IC50 is 340 nM in [4], 1060 nM in [5] and 370 nM in [6].

In experiment [3], SDYSIAMDKIHQQDFVNWLLAQK (not fully specified (C-terminus)) [GIP(8-30)NH2] returned a Ki of 79 nM.

With EGTFISDYSIAMDAIAQQDFVNWLLAQK [hGIP(3-30)K16A H18A], in [1], the Ki stood at 15 nM.

TFISDYSIAMDKIHQQDFVNWLLAQK (not fully specified (C-terminus)) [GIP(5-30)NH2]: the Ki came to 15.2 nM in experiment [1] and 5.9 nM in experiment [3].

Consider GTFISDYSIAMDKIHQQDFVNWLLAQK (not fully specified (C-terminus)) [GIP(4-30)NH2], for which the inhibition constant Ki in experiment [3] was 21.5 nM.

Turning to AEGTFISDYSIAMDKIHQQDFVNWLLAQK (not fully specified (C-terminus)) [GIP(2-30)NH2], in experiment [3], the Ki was 14.3 nM. Besides, the IC50 in experiment [4] amounted to 2.7 nM; in experiment [5], 26 nM; in experiment [6], 7.7 nM.

In the case of EGTFISDYSIAMDKIHQQDFVNWLLAQK [GIP(3-30)NH2], the results for the IC50 in experiment [7], in [9] and in [10] were 3.4 nM, 4.4 nM and 0.76 nM, respectively. The Ki was found to be 2.3 nM in [7] and 14.9 nM in experiment [8].

The molecule EGTFISDYSIAMDKIHQQDFVNWLLAQK [hGIP(3-30)] registered an IC50 in experiment [7] of 16 nM. Further, the Ki in experiment [11] was determined as 15 nM.

In turn, DYSIAMDKIHQQDFVNWLLAQK (not fully specified (C-terminus)) [GIP(9-30)NH2] returned a Ki in [3] of 307 nM.
